Drawing on paper PMC10006412, this text covers stoichiometry N for one substance.

The target of the assay is Newcastle disease virus phosphoprotein (P protein) (Newcastle disease virus). Kind of assay: cryo-EM structure.

A word on the stoichiometry N: it is the number of molecules, sites or subunits per partner or assembly. Substance “Newcastle disease virus phosphoprotein (P protein) (natural protein)” displayed a stoichiometry N of 4.
